Data: article PMC9352680, “A comprehensive thermodynamic model for RNA binding by the Saccharomyces cerevisiae Pumilio protein PUF4”

T1: PUF4 RNA-binding domain (Saccharomyces cerevisiae, UniProt P25339 537-888)
T1 sequence: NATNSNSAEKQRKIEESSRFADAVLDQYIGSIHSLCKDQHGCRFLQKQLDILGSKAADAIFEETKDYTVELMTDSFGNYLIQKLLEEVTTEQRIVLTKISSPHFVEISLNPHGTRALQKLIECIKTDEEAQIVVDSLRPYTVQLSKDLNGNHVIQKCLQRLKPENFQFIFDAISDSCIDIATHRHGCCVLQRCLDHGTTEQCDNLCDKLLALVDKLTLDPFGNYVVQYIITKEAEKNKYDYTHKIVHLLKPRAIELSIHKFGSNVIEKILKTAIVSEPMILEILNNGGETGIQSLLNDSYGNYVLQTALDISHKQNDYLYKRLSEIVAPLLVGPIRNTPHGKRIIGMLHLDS


These binders were tested against T1, PUF4 RNA-binding domain (assay: Mg; RNA-MaP; 20 mM Na-HEPES pH 7.4, 30 mM KOAc, 0.75 mM MgCl2, 0.1% Tween-20, 5% glycerol, 0.1 mg/mL BSA, 2 mM DTT; 25 C; 0.0125-409.6 nM protein). Settings: tags: N-His6-TEV cleaved; C-SNAP kept, Cy3B-labelled; label: tethered on chip by stalled RNA polymerase.

Binder | Kd [nM]
UCUCUUUGUACCCCUUCUCUU (ssRNA) [Ic_S1_P4E.1_K4.1_C4.1_H4.1_A4.1_[T5C]_[A6C]_[T7C]_F4.1_[T8C]_[A9T]_T4.1] | 808
UCUCUUUGUACGUCAUCUCUU (ssRNA) [Ic_S1_P4E.1_K4.1_C4.1_H4.1_A4.1_[T5C]_[A6G]_F4.1_[T8C]_T4.1] | 118
UCUCUUUUUAUAAAUCUCUU (ssRNA) [Ib_S1_P3E.1_K3.1_C3.1_H3.1_[G2T]_A3.1_F3.1_[T7A]_T3.1] | > 2300
UCUCUUUGUACGUAUUCUCUU (ssRNA) [Ic_S1_P4E.1_K4.1_C4.1_H4.1_A4.1_[T5C]_[A6G]_F4.1_[T8A]_[A9T]_T4.1] | 96.3
UCUCUUUGUACUGCGUCUCUU (ssRNA) [Ic_S1_P4E.1_K4.1_C4.1_H4.1_A4.1_[T5C]_[A6T]_[T7G]_F4.1_[T8C]_[A9G]_T4.1] | 1280
UCUCUUUGUACCUCCUCUCUU (ssRNA) [Ic_S1_P4E.1_K4.1_C4.1_H4.1_A4.1_[T5C]_[A6C]_F4.1_[T8C]_[A9C]_T4.1] | 570
UCUCUUUGUACUCGCUCUCUU (ssRNA) [Ic_S1_P4E.1_K4.1_C4.1_H4.1_A4.1_[T5C]_[A6T]_[T7C]_F4.1_[T8G]_[A9C]_T4.1] | 972
UCUCUUUGUGUACAUCUCUU (ssRNA) [Ib_S1_P3E.1_K3.1_C3.1_H3.1_[A4G]_A3.1_F3.1_[T7C]_T3.1] | 38.9
UCUCUUUGUACCCAGUCUCUU (ssRNA) [Ic_S1_P4E.1_K4.1_C4.1_H4.1_A4.1_[T5C]_[A6C]_[T7C]_F4.1_[T8A]_[A9G]_T4.1] | 1230
UCUCUUUGUGUAAAUCUCUU (ssRNA) [Ib_S1_P3E.1_K3.1_C3.1_H3.1_[A4G]_A3.1_F3.1_[T7A]_T3.1] | 202
UCUCUUUGUACCAUUUCUCUU (ssRNA) [Ic_S1_P4E.1_K4.1_C4.1_H4.1_A4.1_[T5C]_[A6C]_[T7A]_F4.1_[A9T]_T4.1] | 9.07
UCUCUUUGUACCGUGUCUCUU (ssRNA) [Ic_S1_P4E.1_K4.1_C4.1_H4.1_A4.1_[T5C]_[A6C]_[T7G]_F4.1_[A9G]_T4.1] | 515
UCUCUUUGUACUGCCUCUCUU (ssRNA) [Ic_S1_P4E.1_K4.1_C4.1_H4.1_A4.1_[T5C]_[A6T]_[T7G]_F4.1_[T8C]_[A9C]_T4.1] | 684
UCUCUUUGUACCUUGUCUCUU (ssRNA) [Ic_S1_P4E.1_K4.1_C4.1_H4.1_A4.1_[T5C]_[A6C]_F4.1_[A9G]_T4.1] | 27.3
UCUCUUUGUACCAAGUCUCUU (ssRNA) [Ic_S1_P4E.1_K4.1_C4.1_H4.1_A4.1_[T5C]_[A6C]_[T7A]_F4.1_[T8A]_[A9G]_T4.1] | 755
UCUCUUUGUACCUGUUCUCUU (ssRNA) [Ic_S1_P4E.1_K4.1_C4.1_H4.1_A4.1_[T5C]_[A6C]_F4.1_[T8G]_[A9T]_T4.1] | 94
UCUCUUUGUACCAAAUCUCUU (ssRNA) [Ic_S1_P4E.1_K4.1_C4.1_H4.1_A4.1_[T5C]_[A6C]_[T7A]_F4.1_[T8A]_T4.1] | 68
UCUCUUUGUACCACGUCUCUU (ssRNA) [Ic_S1_P4E.1_K4.1_C4.1_H4.1_A4.1_[T5C]_[A6C]_[T7A]_F4.1_[T8C]_[A9G]_T4.1] | 652
UCUCUUAGUAUAUGUCUCUU (ssRNA) [Ib_S1_P3E.1_K3.1_C3.1_H3.1_[T1A]_A3.1_F3.1_[A8G]_T3.1] | > 2300
UCUCUUUGUACGUCCUCUCUU (ssRNA) [Ic_S1_P4E.1_K4.1_C4.1_H4.1_A4.1_[T5C]_[A6G]_F4.1_[T8C]_[A9C]_T4.1] | 482
UCUCUUUGUACUGUAUCUCUU (ssRNA) [Ic_S1_P4E.1_K4.1_C4.1_H4.1_A4.1_[T5C]_[A6T]_[T7G]_F4.1_T4.1] | 5.91
UCUCUUUGUACCCCGUCUCUU (ssRNA) [Ic_S1_P4E.1_K4.1_C4.1_H4.1_A4.1_[T5C]_[A6C]_[T7C]_F4.1_[T8C]_[A9G]_T4.1] | > 2300

Binder | Kd [nM]
UCUCUUUGUACCUUUUCUCUU (ssRNA) [Ic_S1_P4E.1_K4.1_C4.1_H4.1_A4.1_[T5C]_[A6C]_F4.1_[A9T]_T4.1] | 34.8
UCUCUUUGUACCUAUUCUCUU (ssRNA) [Ic_S1_P4E.1_K4.1_C4.1_H4.1_A4.1_[T5C]_[A6C]_F4.1_[T8A]_[A9T]_T4.1] | 24.6
UCUCUUUGUACCCAUUCUCUU (ssRNA) [Ic_S1_P4E.1_K4.1_C4.1_H4.1_A4.1_[T5C]_[A6C]_[T7C]_F4.1_[T8A]_[A9T]_T4.1] | 517
UCUCUUUGUACCCUUUCUCUU (ssRNA) [Ic_S1_P4E.1_K4.1_C4.1_H4.1_A4.1_[T5C]_[A6C]_[T7C]_F4.1_[A9T]_T4.1] | 26.8
UCUCUUUGUACUGCAUCUCUU (ssRNA) [Ic_S1_P4E.1_K4.1_C4.1_H4.1_A4.1_[T5C]_[A6T]_[T7G]_F4.1_[T8C]_T4.1] | 668
UCUCUUUGUACCGGCUCUCUU (ssRNA) [Ic_S1_P4E.1_K4.1_C4.1_H4.1_A4.1_[T5C]_[A6C]_[T7G]_F4.1_[T8G]_[A9C]_T4.1] | > 2300
UCUCUUUGUACUGGUUCUCUU (ssRNA) [Ic_S1_P4E.1_K4.1_C4.1_H4.1_A4.1_[T5C]_[A6T]_[T7G]_F4.1_[T8G]_[A9T]_T4.1] | 732
UCUCUUUGUACUGUGUCUCUU (ssRNA) [Ic_S1_P4E.1_K4.1_C4.1_H4.1_A4.1_[T5C]_[A6T]_[T7G]_F4.1_[A9G]_T4.1] | 50.5
UCUCUUUGUACCUAAUCUCUU (ssRNA) [Ic_S1_P4E.1_K4.1_C4.1_H4.1_A4.1_[T5C]_[A6C]_F4.1_[T8A]_T4.1] | 66.3
UCUCUUUGUACCCAAUCUCUU (ssRNA) [Ic_S1_P4E.1_K4.1_C4.1_H4.1_A4.1_[T5C]_[A6C]_[T7C]_F4.1_[T8A]_T4.1] | 833
UCUCUUUGUACCCGUUCUCUU (ssRNA) [Ic_S1_P4E.1_K4.1_C4.1_H4.1_A4.1_[T5C]_[A6C]_[T7C]_F4.1_[T8G]_[A9T]_T4.1] | 842
UCUCUUUGUACCAACUCUCUU (ssRNA) [Ic_S1_P4E.1_K4.1_C4.1_H4.1_A4.1_[T5C]_[A6C]_[T7A]_F4.1_[T8A]_[A9C]_T4.1] | 271
UCUCUUUGUACCGUUUCUCUU (ssRNA) [Ic_S1_P4E.1_K4.1_C4.1_H4.1_A4.1_[T5C]_[A6C]_[T7G]_F4.1_[A9T]_T4.1] | 142
UCUCUUUAUAUACAUCUCUU (ssRNA) [Ib_S1_P3E.1_K3.1_C3.1_H3.1_[G2A]_A3.1_F3.1_[T7C]_T3.1] | > 2300
UCUCUUUGUACGUCUUCUCUU (ssRNA) [Ic_S1_P4E.1_K4.1_C4.1_H4.1_A4.1_[T5C]_[A6G]_F4.1_[T8C]_[A9T]_T4.1] | 1520
UCUCUUUGUACCGCGUCUCUU (ssRNA) [Ic_S1_P4E.1_K4.1_C4.1_H4.1_A4.1_[T5C]_[A6C]_[T7G]_F4.1_[T8C]_[A9G]_T4.1] | 1120
UCUCUUUGUACCAGCUCUCUU (ssRNA) [Ic_S1_P4E.1_K4.1_C4.1_H4.1_A4.1_[T5C]_[A6C]_[T7A]_F4.1_[T8G]_[A9C]_T4.1] | 913
UCUCUUUGUACCUACUCUCUU (ssRNA) [Ic_S1_P4E.1_K4.1_C4.1_H4.1_A4.1_[T5C]_[A6C]_F4.1_[T8A]_[A9C]_T4.1] | 56.6
UCUCUUUGUACCGUCUCUCUU (ssRNA) [Ic_S1_P4E.1_K4.1_C4.1_H4.1_A4.1_[T5C]_[A6C]_[T7G]_F4.1_[A9C]_T4.1] | 1140
UCUCUUUGUACGUUCUCUCUU (ssRNA) [Ic_S1_P4E.1_K4.1_C4.1_H4.1_A4.1_[T5C]_[A6G]_F4.1_[A9C]_T4.1] | 29.9
UCUCUUUGUACGUUGUCUCUU (ssRNA) [Ic_S1_P4E.1_K4.1_C4.1_H4.1_A4.1_[T5C]_[A6G]_F4.1_[A9G]_T4.1] | 40.5
UCUCUUUGUACCCGGUCUCUU (ssRNA) [Ic_S1_P4E.1_K4.1_C4.1_H4.1_A4.1_[T5C]_[A6C]_[T7C]_F4.1_[T8G]_[A9G]_T4.1] | > 2300

Binder | Kd [nM]
UCUCUUUGUACCGUAUCUCUU (ssRNA) [Ic_S1_P4E.1_K4.1_C4.1_H4.1_A4.1_[T5C]_[A6C]_[T7G]_F4.1_T4.1] | 23.4
UCUCUUUGUACCGCUUCUCUU (ssRNA) [Ic_S1_P4E.1_K4.1_C4.1_H4.1_A4.1_[T5C]_[A6C]_[T7G]_F4.1_[T8C]_[A9T]_T4.1] | 741
UCUCUUUGUACCCUCUCUCUU (ssRNA) [Ic_S1_P4E.1_K4.1_C4.1_H4.1_A4.1_[T5C]_[A6C]_[T7C]_F4.1_[A9C]_T4.1] | 41.9
UCUCUUUGUACGUUUUCUCUU (ssRNA) [Ic_S1_P4E.1_K4.1_C4.1_H4.1_A4.1_[T5C]_[A6G]_F4.1_[A9T]_T4.1] | 37.8
UCUCUUUGUACCACCUCUCUU (ssRNA) [Ic_S1_P4E.1_K4.1_C4.1_H4.1_A4.1_[T5C]_[A6C]_[T7A]_F4.1_[T8C]_[A9C]_T4.1] | 573
UCUCUUUGUACGUAGUCUCUU (ssRNA) [Ic_S1_P4E.1_K4.1_C4.1_H4.1_A4.1_[T5C]_[A6G]_F4.1_[T8A]_[A9G]_T4.1] | 93.5
UCUCUUUGCAUACAUCUCUU (ssRNA) [Ib_S1_P3E.1_K3.1_C3.1_H3.1_[T3C]_A3.1_F3.1_[T7C]_T3.1] | > 2300
UCUCUUUGUACCAGGUCUCUU (ssRNA) [Ic_S1_P4E.1_K4.1_C4.1_H4.1_A4.1_[T5C]_[A6C]_[T7A]_F4.1_[T8G]_[A9G]_T4.1] | 1790
UCUCUUUGUACCUCUUCUCUU (ssRNA) [Ic_S1_P4E.1_K4.1_C4.1_H4.1_A4.1_[T5C]_[A6C]_F4.1_[T8C]_[A9T]_T4.1] | 587
UCUCUUUGUACCCGCUCUCUU (ssRNA) [Ic_S1_P4E.1_K4.1_C4.1_H4.1_A4.1_[T5C]_[A6C]_[T7C]_F4.1_[T8G]_[A9C]_T4.1] | 1420
UCUCUUUGUACCUCGUCUCUU (ssRNA) [Ic_S1_P4E.1_K4.1_C4.1_H4.1_A4.1_[T5C]_[A6C]_F4.1_[T8C]_[A9G]_T4.1] | 575
UCUCUUUGUACCCUGUCUCUU (ssRNA) [Ic_S1_P4E.1_K4.1_C4.1_H4.1_A4.1_[T5C]_[A6C]_[T7C]_F4.1_[A9G]_T4.1] | 32.7
UCUCUUUGUACCAUGUCUCUU (ssRNA) [Ic_S1_P4E.1_K4.1_C4.1_H4.1_A4.1_[T5C]_[A6C]_[T7A]_F4.1_[A9G]_T4.1] | 3.4
UCUCUUUGUACCGAUUCUCUU (ssRNA) [Ic_S1_P4E.1_K4.1_C4.1_H4.1_A4.1_[T5C]_[A6C]_[T7G]_F4.1_[T8A]_[A9T]_T4.1] | 519
UCUCUUUGUACGUGUUCUCUU (ssRNA) [Ic_S1_P4E.1_K4.1_C4.1_H4.1_A4.1_[T5C]_[A6G]_F4.1_[T8G]_[A9T]_T4.1] | 110
UCUCUUUGUACGUGAUCUCUU (ssRNA) [Ic_S1_P4E.1_K4.1_C4.1_H4.1_A4.1_[T5C]_[A6G]_F4.1_[T8G]_T4.1] | 629
UCUCUUUGUACCCUAUCUCUU (ssRNA) [Ic_S1_P4E.1_K4.1_C4.1_H4.1_A4.1_[T5C]_[A6C]_[T7C]_F4.1_T4.1] | 7.5
UCUCUUUGUACCGCCUCUCUU (ssRNA) [Ic_S1_P4E.1_K4.1_C4.1_H4.1_A4.1_[T5C]_[A6C]_[T7G]_F4.1_[T8C]_[A9C]_T4.1] | 1630
UCUCUUUGUACGUACUCUCUU (ssRNA) [Ic_S1_P4E.1_K4.1_C4.1_H4.1_A4.1_[T5C]_[A6G]_F4.1_[T8A]_[A9C]_T4.1] | 1560
UCUCUUUGUACCCCCUCUCUU (ssRNA) [Ic_S1_P4E.1_K4.1_C4.1_H4.1_A4.1_[T5C]_[A6C]_[T7C]_F4.1_[T8C]_[A9C]_T4.1] | 1090
UCUCUUUGUACCAAUUCUCUU (ssRNA) [Ic_S1_P4E.1_K4.1_C4.1_H4.1_A4.1_[T5C]_[A6C]_[T7A]_F4.1_[T8A]_[A9T]_T4.1] | 103
